Patent US20260022186A1 (UNIVERSITY OF CHICAGO, published 2026)

T1: Full-length human NT5E (recombinant, secreted) (human)
T1 chain: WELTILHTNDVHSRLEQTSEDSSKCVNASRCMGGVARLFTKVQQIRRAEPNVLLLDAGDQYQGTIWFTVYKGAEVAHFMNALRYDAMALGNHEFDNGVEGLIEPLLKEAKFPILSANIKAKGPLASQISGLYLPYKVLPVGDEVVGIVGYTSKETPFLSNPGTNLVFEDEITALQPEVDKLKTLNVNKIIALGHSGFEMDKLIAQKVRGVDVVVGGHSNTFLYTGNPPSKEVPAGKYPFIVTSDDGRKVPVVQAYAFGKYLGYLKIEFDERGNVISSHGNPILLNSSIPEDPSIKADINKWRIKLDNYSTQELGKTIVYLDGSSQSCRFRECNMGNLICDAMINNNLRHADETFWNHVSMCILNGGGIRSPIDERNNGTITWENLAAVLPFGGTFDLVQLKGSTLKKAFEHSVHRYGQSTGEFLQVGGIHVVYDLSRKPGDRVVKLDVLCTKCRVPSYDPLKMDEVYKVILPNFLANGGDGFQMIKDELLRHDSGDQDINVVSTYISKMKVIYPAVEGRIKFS

T2: hNT5EFF (F417A/F500A mutant of hNT5E) (human, UniProt P21589 27-549)
T2 sequence (looked up): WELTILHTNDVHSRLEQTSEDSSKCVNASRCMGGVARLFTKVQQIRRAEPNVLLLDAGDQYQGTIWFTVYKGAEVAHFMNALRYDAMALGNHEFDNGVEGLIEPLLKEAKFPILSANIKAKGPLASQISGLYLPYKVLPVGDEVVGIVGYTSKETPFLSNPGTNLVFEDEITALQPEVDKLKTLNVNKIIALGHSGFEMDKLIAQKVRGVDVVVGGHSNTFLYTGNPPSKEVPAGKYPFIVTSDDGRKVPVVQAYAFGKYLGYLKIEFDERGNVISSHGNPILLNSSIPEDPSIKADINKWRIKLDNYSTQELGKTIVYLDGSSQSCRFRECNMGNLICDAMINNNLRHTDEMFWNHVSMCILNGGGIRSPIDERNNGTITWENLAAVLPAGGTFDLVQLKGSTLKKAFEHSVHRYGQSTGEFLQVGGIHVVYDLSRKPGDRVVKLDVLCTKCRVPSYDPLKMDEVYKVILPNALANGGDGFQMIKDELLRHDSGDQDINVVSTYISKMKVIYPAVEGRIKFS

T3: Full-length murine NT5E (recombinant, secreted) (murine)
T3 chain: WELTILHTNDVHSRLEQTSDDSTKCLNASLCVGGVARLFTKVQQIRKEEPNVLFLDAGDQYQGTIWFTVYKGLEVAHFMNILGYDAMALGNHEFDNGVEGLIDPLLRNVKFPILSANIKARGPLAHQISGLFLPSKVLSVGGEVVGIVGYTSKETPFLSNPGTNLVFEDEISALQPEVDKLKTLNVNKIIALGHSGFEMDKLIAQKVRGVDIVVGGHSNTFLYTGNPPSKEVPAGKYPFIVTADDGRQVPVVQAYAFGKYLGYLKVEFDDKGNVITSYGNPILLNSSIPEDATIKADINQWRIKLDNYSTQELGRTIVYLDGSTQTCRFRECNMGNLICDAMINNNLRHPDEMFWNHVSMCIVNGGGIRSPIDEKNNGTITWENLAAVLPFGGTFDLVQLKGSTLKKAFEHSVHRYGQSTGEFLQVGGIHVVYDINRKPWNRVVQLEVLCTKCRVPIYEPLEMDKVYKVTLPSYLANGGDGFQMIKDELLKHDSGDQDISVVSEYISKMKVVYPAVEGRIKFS

B1: 1789 Fab (Fab, V domains shown)
VH: EVQLVESGGGLVQPGGSLRLSCAASGFNVSYSSIHWVRQAPGKGLEWVASISSSSGYTYYADSVKGRFTISADTSKNTAYLQMNSLRAEDTAVYYCARNYWGWYPFYYFAFDYWGQGTLVTV
VL: DIQMTQSPSSLSASVGDRVTITCRASQSVSSAVAWYQQKPGKAPKLLIYSASSLYSGVPSRFSGSRSGTDFTLTISSLQPEDFATYYCQQGWDYPITFGQGTKVEIKR
B2: 1789 AM32 Fab (Fab, V domains shown)
VH: EVQLVESGGGLVQPGGSLRLSCAASGFNVSYSSIHWVRQAPGKGLEWVARIRGNEGDTYYADSVKGRFTISADTSKNTAYLQMNSLRAEDTAVYYCARNYWGWYPFYYFAFDYWGQGTLVTV
VL: DIQMTQSPSSLSASVGDRVTITCRASQSVSSAVAWYQQKPGKAPKLLIYSASSLYSGVPSRFSGSRSGTDFTLTISSLQPEDFATYYCQQGWDYPITFGQGTKVEIKR
notes: also called Fab32
B3: 1789 AM39 Fab (Fab, V domains shown)
VH: EVQLVESGGGLVQPGGSLRLSCAASGFNVSYSSIHWVRQAPGKGLEWVASIRGAGSDTRYADSVKGRFTISADTSKNTAYLQMNSLRAEDTAVYYCARNYWGWYPFYYFAFDYWGQGTLVTV
VL: DIQMTQSPSSLSASVGDRVTITCRASQSVSSAVAWYQQKPGKAPKLLIYSASSLYSGVPSRFSGSRSGTDFTLTISSLQPEDFATYYCQQGWDYPITFGQGTKVEIKR
B4: 1789 AM42 Fab (Fab, V domains shown)
VH: EVQLVESGGGLVQPGGSLRLSCAASGFNVSYSSIHWVRQAPGKGLEWVAKIRGGHQDTHYADSVKGRFTISADTSKNTAYLQMNSLRAEDTAVYYCARNYWGWYPFYYFAFDYWGQGTLVTV
VL: DIQMTQSPSSLSASVGDRVTITCRASQSVSSAVAWYQQKPGKAPKLLIYSASSLYSGVPSRFSGSRSGTDFTLTISSLQPEDFATYYCQQGWDYPITFGQGTKVEIKR
B5: 1789 IgG (antibody, V domains shown)
VH: EVQLVESGGGLVQPGGSLRLSCAASGFNVSYSSIHWVRQAPGKGLEWVASISSSSGYTYYADSVKGRFTISADTSKNTAYLQMNSLRAEDTAVYYCARNYWGWYPFYYFAFDYWGQGTLVTVSS
VL: DIQMTQSPSSLSASVGDRVTITCRASQSVSSAVAWYQQKPGKAPKLLIYSASSLYSGVPSRFSGSRSGTDFTLTISSLQPEDFATYYCQQGWDYPITFGQGTKVEIKR

Legend:
[1] = target: T1, Full-length human NT5E (recombinant, …); assay: cell-based or functional assay
[2] = target: T2, hNT5EFF (F417A/F500A mutant of hNT5E); assay: cell-based or functional assay
[3] = target: hNT5EDF (substrate binding knock-out variant of human NT5E) (human); assay: cell-based or functional assay
[4] = target: T1, Full-length human NT5E (recombinant, …); assay: SPR, NT5E on NTA chip via His-tag, 1 mM ATP
[5] = target: T3, Full-length murine NT5E (recombinant, …); assay: protein ELISA, immobilised biotinylated NT5E, 1 mM ATP; protein ELISA, Fab, 1 mM ATP (EC50ATP)
[6] = target: T1, Full-length human NT5E (recombinant, …); assay: protein ELISA, immobilised biotinylated NT5E, 1 mM ATP
[7] = target: T3, Full-length murine NT5E (recombinant, …); assay: SPR, NT5E on NTA chip via His-tag, 1 mM ATP; SPR, Fab, 1 mM ATP
[8] = target: T1, Full-length human NT5E (recombinant, …); assay: SPR, NT5E on NTA chip via His-tag, no ATP
[9] = target: T3, Full-length murine NT5E (recombinant, …); assay: SPR, 1 mM ATP
[10] = target: T1, Full-length human NT5E (recombinant, …); assay: SPR, 1 mM ATP
[11] = target: T3, Full-length murine NT5E (recombinant, …); assay: SPR, no ATP
[12] = target: T1, Full-length human NT5E (recombinant, …); assay: SPR, no ATP
[13] = target: T3, Full-length murine NT5E (recombinant, …); assay: SPR, no ATP; footnote *: data generated poor fits
[14] = target: T1, Full-length human NT5E (recombinant, …); assay: protein ELISA, immobilised biotinylated NT5E, no ATP (apo)
[15] = target: T3, Full-length murine NT5E (recombinant, …); assay: protein ELISA, immobilised biotinylated NT5E, 1 mM ATP

Binder	EC50 [6] [nM]	Kd [9] [nM]	koff [9] [s⁻¹]	kon [9] [M⁻¹ s⁻¹]	Kd [10] [nM]	koff [10] [s⁻¹]	kon [10] [M⁻¹ s⁻¹]	Kd [11] [nM]	koff [11] [s⁻¹]	kon [11] [M⁻¹ s⁻¹]	Kd [12] [nM]	koff [12] [s⁻¹]	kon [12] [M⁻¹ s⁻¹]	also measured
B1	37	–	–	–	–	–	–	–	–	–	–	–	–	TM of NT5E by differential scanning fluorimetry with 1789 Fab, 1 mM ATP [1]: 66 ° C.; TM of NT5E by differential scanning fluorimetry with 1789 Fab, No ATP [1]: 48 ° C.; TM of NT5E by differential scanning fluorimetry with 1789 Fab, 1 mM ATP [2]: 46 ° C.; TM of NT5E by differential scanning fluorimetry with 1789 Fab, No ATP [2]: 47 ° C.; TM of NT5E by differential scanning fluorimetry with 1789 Fab, 1 mM ATP [3]: 46 ° C.; TM of NT5E by differential scanning fluorimetry with 1789 Fab, No ATP [3]: 48 ° C.; Kd [4]: 42 nM; koff [4]: 0.0073 s⁻¹; kon [4]: 170000 M⁻¹ s⁻¹; EC50 [5]: 132 nM; Kd [7]: 160 nM; koff [7]: 0.014 s⁻¹; kon [7]: 85000 M⁻¹ s⁻¹; Kd [8]: 760 nM; koff [8]: 0.044 s⁻¹; kon [8]: 57000 M⁻¹ s⁻¹
B2	–	15	0.0028	190000	15	0.0042	270000	150	0.011	78000	86	0.0091	110000	–
B3	–	12	0.0035	290000	7.9	0.0039	490000	–	0.013	140000	35	0.0099	280000	Kd [13]: 99 nM
B4	–	12	0.0029	250000	11	0.0036	320000	63	0.012	190000	38	0.0067	180000	–
B5	0.86	–	–	–	–	–	–	–	–	–	–	–	–	EC50 [14]: 2.14 nM; EC50 [15]: 1.14 nM
